The series can be described thus: self-splicing fitness, log relative to wild type (ln ratio); higher = more splicing; Tetrahymena group I intron in knt gene, E. coli kanamycin selection, DiMSum; sequences stand for … in CUCUCU…GGAGGGAAAAGUUAUCAGGCAUGCACCUGGUAGCUAGUCUUUAAACCAAUAGAUUGCAUCGGUUUAAAAGGCAAGACCGUCAAAUUGCGGGAAAGGGGUCAACAGCCGUUCAGUACCAAGUCUCAGGGGAAACUUUGAGAUGGCCUUGCAAAGGGUAUGGUAAUAAGCUGACGGACAUGGUCCUAACCACGCAGCCAAGUCCUAAGUCAACAGAUCUUCUGUUGAUAUGGAUGCAGUUCACAGACUAAAUGUCGGUCGGGGAAGAUGUAUUCUUCUCAUAAGAUAUAGUCGGACCUCUCCUUAAUGGGAGCUAGCGGAUGAAGUGAUGCAACACUGGAGCCGCUGGGAACUAAUUUGUAUGCGAAAGUAUAUUGAUUAGUUUUGGAGUACUCGUGGUCG
In short, it runs like this: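 Six replicate transformations of E. coli BL21(DE3) with a pET-22b(+) library were grown overnight at 37°C or 30°C. The library randomised all eight P1ex-region intron nucleotides, the intron lying in the knt kanamycin-resistance gene, and plates were LB agar with or without 25 μg/mL kanamycin plus 100 μg/mL carbenicillin, 50 μM IPTG and 0.2% rhamnose. Pooled colonies were amplicon-sequenced on an Illumina HiSeq 2500, and fitness is the DiMSum error-weighted combination of wild-type-normalised replicate fold changes, kanamycin versus none.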

± gives the uncertainty stated by the source.

As for UCCUAGCAAUAUUACGUCCU, the “self-splicing fitness (ln)” value (30 °C) was -3.56 ± 0.15 and the “self-splicing fitness (ln)” value (37 °C) is -1.92 ± 0.14.

Take GCUGAGCAAUAUUACGCUAU: the “self-splicing fitness (ln)” value (30 °C) is -3.25 ± 0.19 and the “self-splicing fitness (ln)” value (37 °C) is -3.59 ± 0.28.

Consider AGUAAGCAAUAUUACGGUCC, for which the “self-splicing fitness (ln)” value runs as follows: (30 °C) -0.766 ± 0.061; (37 °C) -0.91 ± 0.08.

Turning to GACUAGCAAUAUUACGACAU, the “self-splicing fitness (ln)” value runs as follows: (30 °C) -0.511 ± 0.012; (37 °C) -0.122 ± 0.032.

For GGCGAGCAAUAUUACGCCGG, the “self-splicing fitness (ln)” value by setting is: (30 °C) -3.4 ± 0.35; (37 °C) -0.739 ± 0.33.

As for GGUCAGCAAUAUUACGUCAU, the “self-splicing fitness (ln)” value is, setting by setting: (30 °C) -0.37 ± 0.088; (37 °C) 0.00388 ± 0.12.

For the sequence UGUCAGCAAUAUUACGCCCC, the “self-splicing fitness (ln)” value was -0.691 ± 0.29 (30 °C) and 0.0501 ± 0.3 (37 °C).

With CGACAGCAAUAUUACGAUAG, the “self-splicing fitness (ln)” value reads like this: (30 °C) -0.383 ± 0.06; (37 °C) -0.728 ± 0.07.

Regarding CGUGAGCAAUAUUACGAUUU, where the note is “37 °C”, the “self-splicing fitness (ln)” value was -2.24 ± 0.29.

Consider ACAAAGCAAUAUUACGACUA, for which the “self-splicing fitness (ln)” value (30 °C) was -0.772 ± 0.082 and the “self-splicing fitness (ln)” value (37 °C) was -0.796 ± 0.084.

Regarding GCUUAGCAAUAUUACGAGCC, the “self-splicing fitness (ln)” value (30 °C) was -4.35 ± 0.39 and the “self-splicing fitness (ln)” value (37 °C) is -1.53 ± 0.39.

UUUAAGCAAUAUUACGUGAU: the “self-splicing fitness (ln)” value was -2.59 ± 0.15 (30 °C) and -1.67 ± 0.21 (37 °C).

For CCAGAGCAAUAUUACGUCGU, the “self-splicing fitness (ln)” value reads like this: (30 °C) -3.93 ± 0.24; (37 °C) -2.19 ± 0.21.

Take CGAAAGCAAUAUUACGGUGG: the “self-splicing fitness (ln)” value is, setting by setting: (30 °C) -0.576 ± 0.046; (37 °C) 0.0831 ± 0.066.

For the sequence UGUAAGCAAUAUUACGAUAC, the “self-splicing fitness (ln)” value reads like this: (30 °C) -2.7 ± 0.28; (37 °C) -2.07 ± 0.26.

On to UACUAGCAAUAUUACGUCUG, for which the “self-splicing fitness (ln)” value was -0.817 ± 0.07 (30 °C) and -0.845 ± 0.086 (37 °C).

UGCAAGCAAUAUUACGCGUG: the “self-splicing fitness (ln)” value was -3.54 ± 0.14 (30 °C) and -3.15 ± 0.2 (37 °C).

GCGCAGCAAUAUUACGUGCU: the “self-splicing fitness (ln)” value runs as follows: (30 °C) -4.09 ± 0.2; (37 °C) -2.87 ± 0.23.

As to CAGCAGCAAUAUUACGCACC, the “self-splicing fitness (ln)” value runs as follows: (30 °C) -2.66 ± 0.29; (37 °C) -1.32 ± 0.47.

As for UGCAAGCAAUAUUACGGUGG, the “self-splicing fitness (ln)” value runs as follows: (30 °C) -2.3 ± 0.074; (37 °C) -1.21 ± 0.085.

GAUCAGCAAUAUUACGACCU: the “self-splicing fitness (ln)” value reads like this: (30 °C) -0.708 ± 0.089; (37 °C) -0.346 ± 0.1.

As to GACUAGCAAUAUUACGGCAU, the “self-splicing fitness (ln)” value is -0.26 ± 0.059 (30 °C) and 0.291 ± 0.081 (37 °C).

Consider GCAGAGCAAUAUUACGUGAU, for which the “self-splicing fitness (ln)” value (30 °C) was -2.24 ± 0.16 and the “self-splicing fitness (ln)” value (37 °C) is -1.5 ± 0.18.

Take CUCUAGCAAUAUUACGGACG: the “self-splicing fitness (ln)” value by setting is: (30 °C) -0.959 ± 0.14; (37 °C) -0.0675 ± 0.16.

As for CUCUAGCAAUAUUACGGCAU, the “self-splicing fitness (ln)” value (30 °C) was -4.62 ± 0.39 and the “self-splicing fitness (ln)” value (37 °C) was -3.62 ± 0.42.

As to AUCGAGCAAUAUUACGGUAC, the “self-splicing fitness (ln)” value (37 °C) is -2.51 ± 0.41.

With CGAUAGCAAUAUUACGAGCU, the “self-splicing fitness (ln)” value runs as follows: (30 °C) -3.42 ± 0.4; (37 °C) -3.09 ± 0.35.

With GUUAAGCAAUAUUACGCGGU, the “self-splicing fitness (ln)” value by setting is: (30 °C) -3.3 ± 0.22; (37 °C) -2.65 ± 0.2.

For CUAGAGCAAUAUUACGCUAU, where the note is “37 °C”, the “self-splicing fitness (ln)” value is -2.47 ± 0.48.

With CGCAAGCAAUAUUACGCCCA, the “self-splicing fitness (ln)” value (30 °C) was -0.622 ± 0.17 and the “self-splicing fitness (ln)” value (37 °C) was -0.291 ± 0.16.

For GAGAAGCAAUAUUACGCUUC, the “self-splicing fitness (ln)” value reads like this: (30 °C) -2.79 ± 0.26; (37 °C) -2.89 ± 0.38.

In the case of ACCAAGCAAUAUUACGACUU, the “self-splicing fitness (ln)” value is, setting by setting: (30 °C) -3.83 ± 0.19; (37 °C) -1.85 ± 0.12.

UUGGAGCAAUAUUACGCGGC: the “self-splicing fitness (ln)” value (37 °C) is -1.26 ± 0.41.

On to GUGCAGCAAUAUUACGUGGC, for which the “self-splicing fitness (ln)” value reads like this: (30 °C) -3.55 ± 0.27; (37 °C) -1.8 ± 0.15.

As for UCCAAGCAAUAUUACGCAGC, the “self-splicing fitness (ln)” value runs as follows: (30 °C) -2.73 ± 0.21; (37 °C) -2.89 ± 0.32.

Regarding GUCGAGCAAUAUUACGGAGG, the “self-splicing fitness (ln)” value was -3.76 ± 0.39 (30 °C) and -2.17 ± 0.23 (37 °C).

AUCUAGCAAUAUUACGACAA: the “self-splicing fitness (ln)” value was -1.76 ± 0.23 (30 °C) and 0.296 ± 0.19 (37 °C).

With GUACAGCAAUAUUACGUGGA, the “self-splicing fitness (ln)” value was -4.34 ± 0.29 (30 °C) and -2.52 ± 0.14 (37 °C).

For CUUAAGCAAUAUUACGCUGC, where the note is “37 °C”, the “self-splicing fitness (ln)” value was -1 ± 0.35.

For the origin of these results see the supplement of paper PMC7877785.
